Tested on: MS2 coat protein
Assay: apparent KD of MS2 coat protein; higher = weaker reporter binding
Conditions: Eterna round: R107
Procedure, shortened: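 Each design's apparent KD comes from the median of binding-curve fits to its normalised clusters. Those clusters carried RNA switches transcribed on-chip from Illumina sequencing clusters. SNAP-549-labelled MS2 coat protein was titrated onto them in twofold steps (0.7 or 1.5 nM to 3 µM; per step 0.8–1.5 h down to 10–20 min). Conditions were 100 mM Tris-HCl pH 7.5, 80 mM KCl, 4 mM MgCl2, without or with constant ligand.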

[1] = input ligand: theophylline 20 uM
[2] = input ligand: theophylline 2 mM
[3] = input ligand: tryptophan 2.4 mM

| Sequence | apparent KD of MS2 coat protein (input ligand: arginine 13.2 mM) [nM] | apparent KD of MS2 coat protein [1] [nM] | apparent KD of MS2 coat protein [2] [nM] | apparent KD of MS2 coat protein (input ligand: none) [nM] | apparent KD of MS2 coat protein [3] [nM] |
| --- | --- | --- | --- | --- | --- |
| CUAUUUAUAGCGGCCGCCACUUACUCAUGAGGUAACAACAUGAGGAUCACCCAUGUUUGAGGAUCAAGGACCGGGCUAUGGAUAG [AstrosSSTryB#12] | 24.5 | 37 | 31.5 | – | – |
| CUCCCGUGGUCGGCCGCCACUGGAGGCCUUGCGCGACAUGAGGAUCACCCAUGUGUGCCCGGCGUCAGGACCGGGAUCGCGUGAG [#1 Same State - Tryptophan B Attempt #12 (HarryS)] | 17.2 | 18.7 | 19.7 | 16.1 | 13.8 |
| CUCCGAGGCUAUACUAUACGCCUUUGUGAUACCAGAAUAAAUAUAUUCCCUUGGCAGCAUCACAUGAGGAUCACCCAUGUGCCAU [SSTheo A #12] | 15.7 | 27.7 | – | – | 12.4 |
| CUCGAGUUAUGAGAUACCAGACUAUAGUUUACAUGAGGAUCACCCAUGUUAUGGGUGGUAGUCCCUUGGCAGCUCAUAUGUUUAA [#06 Exclusion-TheophyllineB] | 210 | 274 | – | – | 305 |
| CUCUGAGUGAGUAAUCACUCAGAGGCGGAUACCAGCGAGGUCCAUCGCCCUUGGCAGCCGAACAUGAGGAUCACCCAUGUCGGUA [#1 Same State - Theophylline A Attempt #24 (HarryS)] | 8.82 | 12.2 | – | – | 11.7 |
| CUGCCAUGCAGAGAUACCAGUGAGCUCAAAACAUGAGGAUCACCCAUGUAAAUUGCCGAUCACCCUUGGCAGCUCUGCAUGGCAG [}=%#^] | 13.7 | 10.3 | – | – | 9.55 |
| CUUAUACAUGAGGAUCACCCAUGUGGUGAUACCAGCCACGAUCAAGGCCCUUGGCAGCACAAAGGGAAUAAUAUGAUUACAAAAC [theeternabot_sameState_MS2_Theo_A_6] | 117 | 566 | – | – | 489 |
| CUUCUGAAAGCAAUGGGAUCUGUUAUUGAUACCAGCAUCUGAUUUUGCCCUUGGCAGCAAGAAACAUGAGGAUCACCCAUGUGGC [theeternabot_exclusion_MS2_Theo_A_19] | 21.4 | 23.1 | – | – | 21 |
| CUUGUGCUGACGGCCGCCACUUUAUGGGAGUCCUGUUCUGAUUGAUACAUGAGGAUCACCCAUGUAAGGACCGGGUCGUACCAUA [theeternabot_exclusion_MS2_Trp_B_22] | 22.7 | 27.4 | 22.7 | – | – |
| CUUGUGGGCGGAAGGAGCGCGAUUACAUAACAUGAGGAUCACCCAUGUAAGAAAUUAUUCAUGCAGGUAGGUCGCCGUUCGUGGG [Same State Arginine B GF9] | 24.8 | 30.9 | 24.1 | 23.8 | 25.2 |
| GACAUGAGGAUCACCCAUGUACCGCGAGAAGGAGCGCGGAUAAACGCAGGUAGGUCGCUCGUGGGCUUGUAUUCAAUCGUAAGCU [Anlaaranan] | 48.2 | 187 | 207 | 108 | 80.7 |
| GACAUGAGGAUCACCCAUGUUGACUAUGAAGGAGCGUCGGAAAUGACAGGUAGGUCGCAUAGUCGACCUUGUAUUUUGUGUGUUU [EAA #9] | 12.7 | 17.4 | 12.5 | 10.4 | 11.6 |
| GACCACAUGAGGAUCACCCAUGUCUUGGUCCGAGGACCGGUACGGCCGCCACUCGAGAGCCGUACAAAUAAACGGAGUGCCAUCA [theeternabot_sameState_MS2_Trp_A_31] | 12.5 | 19.6 | 15.5 | – | – |
| GACCCAUGAGUUGUAAAAGCUCAUGGGUCGCGAGGACCGGUACGGCCGCCACUCGGCUGUACAUGAGGAUCACCCAUGUCAGGGU [#1 Same State - Tryptophan A Attempt #27 (HarryS)] | 44.8 | 568 | 527 | – | – |
| GAGCUGAUGUAGAGCGAAUAUUCGAGAGAUACCAGUACAGAAAUGUACCCUUGGCAGCUCAACUUUACAUGAGGAUCACCCAUGU [Ex Theophylline A 23] | 15 | 15.6 | – | – | 14.7 |
| GAGUACACUACGGCCGCCACUCAAGGAGCUACAUAGCUCCUAGACAUGAGGAUCACCCAUGUACCGAGGACCGGGUAGAUCCUUA [Same State Typrtophan B GF2] | 129 | 246 | 294 | – | – |
| GAUGAUAUUGCAGAUACCAGACACAUGAGGAUCACCCAUGUGUCCUCGCCAGCGGCAUGUGUCCCUUGGCAGCUGCGAUAUCAUC [Colombia] | 11.1 | 17.7 | 41.2 | 11.1 | 12.1 |
| GAUUUAACAAAAGUUAGAUCAGUGGGUGAACGAGGACCGGUACGGCCGCCACUCGGACAUGAGGAUCACCCAUGUCCAUGUGAAA [AstrosExyTryA#20] | 15.3 | 19.4 | 18.6 | – | – |
| GCACAUGAGGAUCACCCAUGUACAACUGAAGGAGCGAGACAGAACUCAGGUAGGUCGCAGAAUGCACAAUAGCAUACGACAUGGG [Exclusion Arginine A GF20] | 20.2 | 52.1 | 23.8 | 20.8 | 24.2 |
